Test system: VchCAST TnsB transposase (Tn6677; assayed with TnsA-TnsC and TniQ-Cascade) (Vibrio cholerae)
Assay: cell_activity
Details: for binding signal: no IPTG

| Sequence | binding signal (T-RL) [fold vs WT] | further results |
| --- | --- | --- |
| ACATTTGTTGATACAACCATAAAATGATAATTACACCCATAAATTGATAATTATCACACCCATAAATTGATATTGCCTCTGATCATAAATATATAAATTAATTATTAAATTAGTCAGGCACCGACAC (double strand) [Right end hyperactive 2692] | 2.24 | – |
| TTTTGTGTTGAAACAACCATAAAGTGATAACAACGAATCAATTAAAATCATAGGCTTAATCGAAAAACAACCATATATTGATATCTCATAAAACAACCATAAGTTGATATTTTGGTGAAAAGGATATTCCAACCTTCATAGTTTAGTAAGAA (double strand) [Left end hyperactive 4669] | 1.69 | – |
| ACATTTGTTGATACAACCATAAAATGATAATTATACCCATAAATTGATAATTATCACACCCATAAATTGATATTGCCTCTGATCATAGTCAGACCAACATTGCTACGACCCGTATTCGCACCGACAC (double strand) [Right end variant 985] | – | binding signal (log2 fold vs WT) (T-RL, second replicate -1.2264): -1.42 |
| ACATTTGTTGATACAACCATAAAATGATAATTACACCCATAAATTGATAATTATCACACCCATAAATTGATATTGCCTCTGATCAAATTGTGAGCGGATAACAATTTAGTCAGACCAGCACCGACAC (double strand) [Right end hyperactive 2695] | 1.82 | – |
| ACATTTGTTGATACAACCATAAAATGATAATTACACCCATAAATTGATAATTATCACACCCATAAATTGATATTGCCTCTCGCGAGAGGCCGGCAGCCGTCTGGCGTCGGGTGGCGGGCACCGACAC (double strand) [Right end hyperactive 2697] | 2.03 | – |
| TGTGGATCCAACCATAAAATGATAATTACACCCATAAATGGATCATTATCACACCCA (double strand) [Right end ORF1c] | – | binding signal (log2 fold vs WT) (T-RL, second replicate -1.51): -2.06 |
| AATGTTGTTGATGCAACCATAAAGTGATATTTAATAATTATTTATAATCAGCAACTTAACCACAAAACAACCATATATTGATATCTCACAAAACAACCATAAGTTCATATTTTTGTGAATCGAGTATTTCAGCAAAACTACTGCAGTAAGAA (double strand) [Left end variant 3165] | – | binding signal (log2 fold vs WT) (T-RL, second replicate -1.3719): -2.25 |
| ACATTCGTTGATACAACCATAAAATGATAATTACACCCATAAATTGATAATTATCACACCCATAAATTGATATTGCCTCTGATCATAGTCAGACCAACATTGCTACGACCCGTATTCGCACCGACAC (double strand) [Right end variant 1070] | – | binding signal (log2 fold vs WT) (T-RL, second replicate): -1.95 |
| ACATTTGTTGATACAACCATAAAATGATAATTACACCCATAAATTGATAATTATCACACCCATAAATTGATATTGCCTCTGATCAGGAATTGTGAGCGGATAACAATTTAGTCAGACGCACCGACAC (double strand) [Right end hyperactive 2693] | 2.05 | – |
| TTTTGTGTTGAAACAACCATAAAGTGATATTTACGAATCAATTAAAATCATAGGCTTAATCGAAAAACAACCATATCTTGATATCGCATAAAACAACCATAAGTTGATATTTTGGTGAAAAGGATATTCCAACCTTCATAGTTTAGTAAGAA (double strand) [Left end hyperactive 4667] | 2.07 | – |
| ACATTTGTTGATACAACCATAAAATGATAATTACACCCATAAATTGATAATTATCACACCCATAAATTGATATTGCCTCTGATCATATTTAATAATTAATTTATATATTTAAGTCAGGCACCGACAC (double strand) [Right end hyperactive 2691] | 2.63 | – |
| ACATTTGTTGATACAACCATAAAATGATAATTACACCCATAAATTGATAATTATCACACCCATAAATTGATATTGCCTCTGTACGATCCAGTGATCTCCAAGACGCTGCAAGAGTCCGCACCGACAC (double strand) [Right end hyperactive 2702] | 1.71 | – |
| TTTTGTGTTGATGCAACCATAAAGTGATAACAACGAATCAATTAAAATCATAGGCTTAATCGAAAAACAACCATATCTTGATATCGCATAAAACAACCATAAGTTGATATTTTGGTGAAAAGGATATTCCAACCTTCATAGTTTAGTAAGAA (double strand) [Left end hyperactive 4671] | 1.55 | – |
| ACATTGGTTGATACAACCATAAAATGATAATTACACCCATAAATTGATAATTATCACACCCATAAATTGATATTGCCTCTGATCATAGTCAGACCAACATTGCTACGACCCGTATTCGCACCGACAC (double strand) [Right end variant 1069] | – | binding signal (log2 fold vs WT) (T-RL, second replicate -6.7160): -6.61 |
| TGTTGATACAACCATCAAATGGTAATTACACCCATAAATTGATAATTATCACACCCA (double strand) [Right end ORF3a] | – | binding signal (log2 fold vs WT) (T-RL, second replicate -0.05): -0.64 |
| AATGTTGTTGATGCAACCATAAAGTGATATTTAATAATTATTTATAATCAGCAACTTAACCACAAAACAACCATATATTGATATCTCACAAAACACCCATAAGTTGATATTTTTGTGAATCGAGTATTTCAGCAAAACTACTGCAGTAAGAA (double strand) [Left end variant 3195] | – | binding signal (log2 fold vs WT) (T-RL, second replicate 0.7256): 0.722 |
| TGTGGATACAACCATAAAATGATAATTACACCCATAAATGGATCATTATCACCCCCA (double strand) [Right end ORF1a] | – | binding signal (log2 fold vs WT) (T-RL integration, second replicate -1.08): -1.47 |

| Sequence | binding signal (T-RL) [fold vs WT] | further results |
| --- | --- | --- |
| TGTTGATACAACCATTAAATGATAATTCCACCCATAATTTGATAATTATCACACCCA (double strand) [Right end ORF3b] | – | binding signal (log2 fold vs WT) (T-RL, second replicate -0.65): -0.84 |
| ACATTTGTTGATACAACCATAAAATGATAATTACACCCATAAATTGATAATTATCACACCCATACCTTGATATTGCCTCTGATCATAGTCAGACCAACATTGCTACGACCCGTATTCGCACCGACAC (double strand) [Right end variant 1100] | – | binding signal (log2 fold vs WT) (T-RL, second replicate 1.4027): 1.3 |
| ACATTTGTTGATACAACCATAAAATGATAATTACACCCATAAATTGATAATTATCACACCCATAAATTGATATTGCCTCTCAGACCACATAGCTGCCATGTCCTGATCGGACGGACCGCACCGACAC (double strand) [Right end hyperactive 2701] | 1.7 | – |
| AATGTTGTTGATGCAACCATAAAGTGATATTTACGAATCAATTAAAATCATAGGCTTAATCGAAAAACAACCATATATTGATATCTCATAAAACAACCATAAGTTGATATTTTGGTGAAAAGGATATTCCAACCTTCATAGTTTAGTAAGAA (double strand) [Left end hyperactive 4666] | 2.58 | – |
| ACATTTGTTGATACAACCATAAAATCATAATTACACCCATAAATTGATAATTATCACACCCATAAATTGATATTGCCTCTGATCATAGTCAGACCAACATTGCTACGACCCGTATTCGCACCGACAC (double strand) [Right end variant 1010] | – | binding signal (log2 fold vs WT) (T-RL, second replicate -1.5090): -1.91 |
| ACATTAGTTGATACAACCATAAAATGATAATTACACCCATAAATTGATAATTATCACACCCATAAATTGATATTGCCTCTGATCATAGTCAGACCAACATTGCTACGACCCGTATTCGCACCGACAC (double strand) [Right end variant 1068] | – | binding signal (log2 fold vs WT) (T-RL, second replicate -5.4441): -6.17 |
| ACATTTGTTGATACAACCATAAAATGATAATTACACCCATAAATTGATAATTATCACACCCATAAATTGATATTGCCTCTCCGACCCGGAAGAGGGCGCCTAGAATTGGGAGTGGTCGCACCGACAC (double strand) [Right end hyperactive 2700] | 1.72 | – |
| AATGTTGTTGATGCAACCATAAAGTGATATTTAATAATTATTTATAATCAGCAACTTAACCTCAAAACAACCATATATTGATATCTCACAAAACAACCATAAGTTGATATTTTTGTGAATCGAGTATTTCAGCAAAACTACTGCAGTAAGAA (double strand) [Left end variant 3295] | – | binding signal (log2 fold vs WT) (T-RL, second replicate 1.3754): 0.963 |
| ACATTTGTTGATACAACCATAAAATGATAATTACACCCATAAATTGATAATTATCACACCCATAAATTGATATTGCCTCTGTTGGCGCCCGGCCCTCAGGCCCTGCAGTGAGTTCCAGCACCGACAC (double strand) [Right end hyperactive 2699] | 1.77 | – |
| TTTTGTGTTGAAACAACCATAAAGTGATAACAACGAATCAATTAAAATCATAGGCTTAATCGAAAAACAACCATATCTTGATATCGCACAAAACAACCATAAGTTGATATTTTGGTGAAAAGGATATTCCAACCTTCATAGTTTAGTAAGAA (double strand) [Left end hyperactive 4672] | 1.54 | – |
| AATGTTGTTGATGCAACCATAAAGTGATATTTAATAATTATTTATAATCAGCAACTGAACCACAAAACAACCATATATTGATATCTCACAAAACAACCATAAGTTGATATTTTTGTGAATCGAGTATTTCAGCAAAACTACTGCAGTAAGAA (double strand) [Left end variant 3311] | – | binding signal (log2 fold vs WT) (T-RL, second replicate -0.9350): -1.73 |
| TGTGGATACAACCATAAAACGATAATTACACCCATAAATGGATCATTATCACACCCA (double strand) [Right end ORF1b] | – | binding signal (log2 fold vs WT) (T-RL, second replicate): -2.03 |
| TTTTGTGTTGAAACAACCATAAAGTGATAACAACGAATCAATTAAAATCATAGGCTTAATCGAAAAACAACCATATCTTGATATCGCATAAAACAACCATAAGTTGATATTTTTGTGAATAGGATATTCCAACCTTCATAGTTTAGTAAGAA (double strand) [Left end hyperactive 4670] | 1.67 | – |
| ACATTTGGTGATACAACCATAAAATGATAATTACACCCATAAATTGATAATTATCACACCCATAAATTGATATTGCCTCTGATCATAGTCAGACCAACATTGCTACGACCCGTATTCGCACCGACAC (double strand) [Right end variant 1063] | – | binding signal (log2 fold vs WT) (T-RL, second replicate -5.3052): -6.47 |
| ACATTTGTTGATACAACCATAAAATGATAATTACACCCATAAATTGATAATTATCACACCCATAAATTGATATTGCCTCTGATCATAATTGTTATCCGCTCACAATTCCAGTCAGACGCACCGACAC (double strand) [Right end hyperactive 2694] | 1.89 | – |
| AATGTTGTTGATGCAACCATAAAGTGATATTTAATAATTATTTATAATCAGCAACTTAACCACAAAACAACCATATATTCATATCTCACAAAACAACCATAAGTTGATATTTTTGTGAATCGAGTATTTCAGCAAAACTACTGCAGTAAGAA (double strand) [Left end variant 3243] | – | binding signal (log2 fold vs WT) (T-RL, second replicate -1.5930): -2.53 |
| ACATTTGTTGATACAACCATAAAATGATAATTACACCCATAAATTGATAATTATCACACCCATAAATTGATATTGCCTCTTTATGCAGGACGACGTACGCGTTCCATATAAACCTGTGCACCGACAC (double strand) [Right end hyperactive 2696] | 1.83 | – |

Reference: patent US20250163410
